Assay results reported in patent publication US20180280520A1 (NAVIGEN, published 2018).
Where “and” joins values, the source holds several entries; their conditions need not be identical. Equal values may be shown once. Positions of bridges follow the written chain, without caps; N, C: chain ends. Non-standard residues stand in square brackets, D forms with d. Primed or numbered codes have the meaning given here. No end group written: not given here. PEG4′ = not defined here; PEG6′ = not defined here; PEG8′ = not defined here

T1: BPEG2-GKG-RSVB-IZN45 Full Mut (respiratory syncytial virus, RSV-B, N-terminal biotinPEG2; C-terminal amide)
T1 construct: also called IZN45_Mut; mutant target
T1 chain: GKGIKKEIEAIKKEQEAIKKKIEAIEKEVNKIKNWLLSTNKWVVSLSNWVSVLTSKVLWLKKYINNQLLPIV

T2: BPEG2-GKG-RSVB-IZN45 (respiratory syncytial virus, RSV-B, N-terminal biotinPEG2; C-terminal amide)
T2 chain: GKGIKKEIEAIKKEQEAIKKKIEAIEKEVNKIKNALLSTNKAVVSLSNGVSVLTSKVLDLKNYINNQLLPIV

T3: IZN45_WT_Bot (N-terminal biotinPEG2; C-terminal amide)
T3 construct: also called BPEG2-GKG-RSVB-IZN45 wt bot
T3 N-trimer mimic monomer (IZ fused to N45, partial groove mutant): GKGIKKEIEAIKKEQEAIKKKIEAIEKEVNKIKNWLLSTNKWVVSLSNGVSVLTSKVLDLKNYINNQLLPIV


Target: T1, BPEG2-GKG-RSVB-IZN45 Full Mut
Test: SPR

Row | Binder | binding result
1 | FDASISQVNEKINQSLAFIRKSDELLHNVNAGKST (also called RSV C-peptide T118) [T118] | no binding
2 | YDPLVFPSDEFDASISQVNEKINQSLAFIRKSDEL (domain: 35-residue RSV C-peptide T108; also called RSV C-peptide T108) [T108] | no binding

Target: T1, BPEG2-GKG-RSVB-IZN45 Full Mut
Test: phage ELISA

Row | Binder | binding result
3 | YDPLVFPSDEFDASISQVNEKINQSLAFIRKSDEL (domain: 35-residue RSV C-peptide T108) [control phage displaying T108] | no binding

These binders were tested against RSV F protein (RSV-A) (respiratory syncytial virus, RSV-A) (UniProt P03420) (assay: cell-based or functional assay).
Chain of RSV F protein (RSV-A) (respiratory syncytial virus, RSV-A) (P03420 26-574): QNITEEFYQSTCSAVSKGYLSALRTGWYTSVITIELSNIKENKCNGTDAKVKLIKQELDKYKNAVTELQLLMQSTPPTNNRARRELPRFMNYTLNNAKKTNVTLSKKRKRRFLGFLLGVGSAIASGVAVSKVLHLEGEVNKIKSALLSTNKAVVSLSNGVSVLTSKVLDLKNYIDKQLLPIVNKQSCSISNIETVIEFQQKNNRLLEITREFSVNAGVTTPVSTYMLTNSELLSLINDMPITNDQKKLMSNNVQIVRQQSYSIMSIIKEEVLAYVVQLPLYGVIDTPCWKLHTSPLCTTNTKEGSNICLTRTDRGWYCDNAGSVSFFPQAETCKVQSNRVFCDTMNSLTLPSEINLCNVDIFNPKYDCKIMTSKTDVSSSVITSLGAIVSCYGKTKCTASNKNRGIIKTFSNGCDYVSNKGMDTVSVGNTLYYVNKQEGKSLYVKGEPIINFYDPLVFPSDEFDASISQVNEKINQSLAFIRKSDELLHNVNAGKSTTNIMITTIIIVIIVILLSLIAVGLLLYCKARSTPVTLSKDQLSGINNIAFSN

Row | Binder | potency [nM] | potency, fold decrease compared to RSVP32 [fold] | IC50, syncytia reduction assay
4 | GEVCRPEWLLDWCGT (D-peptide; N-terminal acetyl; C-terminal amide) [RSVP32 with shortened disulfide] | 360 | 14.4 | 
5 | Ac-G[dE][dC][dV][dN][dR][dP][dE][dW][dL][dL][dD][dW][dC]G[dT]G[dD][dD][PEG4′][dK]-NH2 (disulfide 3-14; also: cholesterol conjugate, trimer) [Chol-Ac-RSVP32-GDD(PEG4)K-trimer] |  |  | 37 nM and 52 nM and 95 nM
6 | Ac-[dK][PEG6′][dD][dD]G[dH][dA][dC][dV][dN][dR][dP][dE][dW][dL][dL][dD][dW][dC]G[dR]-NH2 (disulfide 8-19; also: cholesterol (Chol) conjugate, site not given here, trimer) [Chol-Ac-K(PEG6)DDG-RSVP26-trimer] |  |  | 3200 nM
7 | Ac-[dK][PEG6′]G[dA][dC][dR][dN][dE][dP][dH][dW][dL][dL][dD][dW][dC][dA][dA]-NH2 (disulfide 5-16; also: cholesterol (Chol) conjugate, site not given here, trimer) [Chol-Ac-K(PEG6)-RSVP20-trimer] |  |  | 7900 nM
8 | Ac-[dK][PEG6′]G[dH][dA][dC][dV][dN][dR][dP][dE][dW][dL][dL][dD][dW][dC]G[dR]G[dR][dR]-NH2 (disulfide 6-17; also: trimer, linkage not given here) [Ac-K(PEG6)G-RSVP26-GRR-trimer] |  |  | 5500 nM
9 | Ac-[dK][PEG6′][dD][dD]G[dS][dM][dC][dV][dN][dR][dP][dE][dW][dL][dL][dD][dW][dC]G[dT]-NH2 (disulfide 8-19; also: trimer, linkage not given here) [Ac-K(PEG6)DDG-RSVP24-trimer] |  |  | 5500 nM
10 | Ac-[dK][PEG6′]G[dH][dA][dC][dV][dN][dR][dP][dE][dW][dL][dL][dD][dW][dC]G[dR]G[dR][dR]-NH2 (disulfide 6-17; also: cholesterol conjugate, trimer) [Chol-Ac-K(PEG6)G-RSVP26-GRR-trimer] |  |  | 490 nM
11 | GECVNQPEWLLDWCGT (D-peptide; N-terminal acetyl; C-terminal amide) [RSVP32 with Gln at position 6] | 53 | 2 | 
12 | Ac-[dS][dM][dC][dV][dN][dR][dP][dE][dW][dL][dL][dD][dW][dC]G[dT]G[dD][dD][PEG6′][dK]-NH2 (disulfide 3-14; also: trimer, linkage not given here) [Ac-RSVP24-GDD(PEG6)K-trimer] |  |  | 4600 nM
13 | KKGAAAARWFELPEPEWWG (not fully specified; all D-amino acids; C-terminal PEG6 joined to the hub) [KKGAAAA-RSVP7-G(PEG6)-Tricasso] |  |  | 13900 nM and 7400 nM
14 | Ac-[dK][PEG6′][dD][dD]G[dH][dA][dC][dV][dN][dR][dP][dE][dW][dL][dL][dD][dW][dC][dD][dH]-NH2 (disulfide 8-19; also: cholesterol conjugate, trimer) [Chol-Ac-K(PEG6)DDG-RSVP28-trimer] |  |  | 240 nM
15 | Ac-[dK][PEG6′][dD][dD]G[dS][dA][dC][dV][dN][dR][dP][dE][dW][dL][dL][dD][dW][dC]G[dT]-NH2 (disulfide 8-19; also: cholesterol conjugate, trimer) [Chol-Ac-K(PEG6)DDG-RSVP29-trimer] |  |  | 120 nM and 100 nM
16 | Ac-[dK][PEG6′][dD][dD]G[dA][dE][dC][dV][dN][dR][dP][dE][dW][dL][dL][dD][dW][dC]G[dT]-NH2 (disulfide 8-19; also: cholesterol conjugate, trimer) [Chol-Ac-K(PEG6)DDG-RSVP31-trimer] |  |  | 65 nM and 54 nM and 24 nM
17 | Ac-[dK]GG[dA][dC][dR][dN][dE][dP][dH][dW][dL][dL][dD][dW][dC][dA][dA]-NH2 (disulfide 5-16; SMILES CC(=O)N[C@H](CCCCN)C(=O)NCC(=O)NCC(=O)N[C@H](C)C(=O)N[C@@H]1CSSC[C@H](C(=O)N[C@H](C)C(=O)N[C@H](C)C(N)=O)NC(=O)[C@@H](Cc2c[nH]c3ccccc23)NC(=O)[C@@H](CC(=O)O)NC(=O)[C@@H](CC(C)C)NC(=O)[C@@H](CC(C)C)NC(=O)[C@@H](Cc2c[nH]c3ccccc23)NC(=O)[C@@H](Cc2c[nH]cn2)NC(=O)[C@H]2CCCN2C(=O)[C@@H](CCC(=O)O)NC(=O)[C@@H](CC(N)=O)NC(=O)[C@@H](CCCNC(=N)N)NC1=O) [Ac-KG-RSVP20] |  |  | 673000 nM
18 | Ac-[dK][PEG8′]GG[dE][dC][dV][dN][dR][dP][dE][dW][dL][dL][dD][dW][dC]G[dT]G[dD][dD]-NH2 (disulfide 6-17; also: cholesterol conjugate, trimer) [Chol-Ac-K(PEG8)G-RSVP32-GDD-trimer] |  |  | 24 nM and 8 nM
19 | Ac-[dK][PEG4′][dD][dD]GG[dE][dC][dV][dN][dR][dP][dE][dW][dL][dL][dD][dW][dC]G[dT]-NH2 (disulfide 8-19; also: Chol, attachment not given here, trimer, linkage not given here) [Chol-Ac-K(PEG4)DDG-RSVP32-trimer] |  |  | 28 nM and 16 nM and 11 nM
20 | Ac-[dS][dM][dC][dV][dN][dR][dP][dE][dW][dL][dL][dD][dW][dC]G[dT]G[dD][dD][PEG6′][dK]-NH2 (disulfide 3-14; also: cholesterol conjugate, trimer) [Chol-Ac-RSVP24-GDD(PEG6)K-trimer] |  |  | 97 nM
21 | Ac-[dK][PEG6′][dD][dD]G[dH][dE][dC][dV][dN][dR][dP][dE][dW][dL][dL][dD][dW][dC][dE][dH]-NH2 (disulfide 8-19; also: cholesterol conjugate, trimer) [Chol-Ac-K(PEG6)DDG-RSVP27-trimer] |  |  | 140 nM and 90 nM and 88 nM

The binders below were run against RSV F protein (RSV-A) (respiratory syncytial virus, RSV-A, UniProt P03420 26-574) (assay: cell-based or functional assay).

Row | Binder | IC50, syncytia reduction assay
22 | [dK]G[dR][dW][dF][dE][dL][dP][dE][dP][dE][dW][dW]G (not fully specified (C-terminus); printed as KG-RSVP7-G(PEG6)-Tricasso) [KG-RSVP7-G(PEG6)-Tricasso] | 18400 nM
23 | Ac-KG[dA][dC][dR][dN][dE][dP][dH][dW][dL][dL][dD][dW][dC][dA][dA]-NH2 (disulfide 4-15 (inferred); not fully specified (residue 1); printed as Ac-K(PEG6)-RSVP20-trimer; also: PEG6 after N-terminal K (side chain or backbone unclear), trimer) [Ac-K(PEG6)-RSVP20-trimer] | 55000 nM and 19000 nM
24 | Ac-KG[dA][dC][dT][dN][dR][dA][dE][dW][dL][dI][dD][dW][dC][dA][dA]-NH2 (disulfide 4-15 (inferred); not fully specified (residue 1); printed as Ac-K(PEG6)-RSVP21-trimer; also: PEG6 after N-terminal K (side chain or backbone unclear), trimer) [Ac-K(PEG6)-RSVP21-trimer] | 65000 nM
25 | KKGRWFELPEPEWWG (not fully specified; all D-amino acids; C-terminal PEG6 joined to the hub) [KKG-RSVP7-G(PEG6)-Tricasso] | 4800 nM and 4500 nM

Target: T2, BPEG2-GKG-RSVB-IZN45
Test: SPR, biotinylated L-IZN45 on NeutrAvidin chip

Row | Binder | Kd [nM]
26 | FDASISQVNEKINQSLAFIRKSDELLHNVNAGKST (also called RSV C-peptide T118) [T118] | ~1

Target: T3, IZN45_WT_Bot
Test: phage ELISA of clonal phage, percent bound

Row | Binder | binding result
27 | SLKYWWMEELPLPKWW [X16-18 phage clone] | no binding

Target: T1, BPEG2-GKG-RSVB-IZN45 Full Mut
Test: phage ELISA of clonal phage, percent bound

Row | Binder | binding result
28 | GACKIHDLFHWHDCAA (disulfide (positions not given here); not fully specified (bridges), also called CXC10C-119) [CX10C-119 phage clone] | no binding
29 | SLKYWWMEELPLPKWW [X16-18 phage clone] | no binding
30 | SKVILPEPFWWP [X12-47 phage clone] | no binding
